From patent US11242370B2, “Neuregulin-4 compounds and methods of use” (Eli Lilly and Company, priority 2019, dated 2022)
Changes are numbered by the printed parent chain. Names may count otherwise. Marks after values point to notes of the source that are not given here.

Key:
[1] = tested on: rats; assay: Toxicology study in rats, cardiac tissue inspection; conditions: single SC injection of 0.3 mg/kg
[2] = tested on: rat model of heart failure with reduced ejection fraction (HFrEF); assay: Rat MI model, captopril, Example 10 or combination, echocardiography; assay type: in vivo; parameters: Left Ventricle Diameter (end diastole): unit not given here
Description: A nonclinical efficacy pharmacology study is conducted in a rat model of heart failure with reduced ejection fraction (HFrEF) to evaluate cardiac function and structure changes after captopril treatment, Example 10 treatment or combination treatment.
The left coronary artery is permanently ligated. All rats are individually housed in a temperature and humidity controlled room and maintained on a 12 hour light/dark cycle. Two to three weeks after surgery, rats undergo transthoracic echocardiography for determination of ejection fraction (EF %) and left ventricle dimensions (LVD) using a Vevo 2100 ultrasound system. Rats are randomized across treatment groups according to EF % and LVD.
Measurements of EF % and LVD are expressed as mean values±standard error (SE). Statistical analysis is performed with JMP® 13 software (SAS Institute, Inc.; Cary, N.C.) and Dunnett's Test is used for statistical comparisons across treatment groups. Statistical significance is accepted at P<0.05.
Three weeks after MI surgery, animals are randomized to 2 treatment groups (Placebo or captopril, 2 g/L in drinking water, ad lib) according to EF % and LVD. Three weeks and four weeks after dosing starts, cardiac function (EF %) and structure (LVD) are evaluated by transthoracic echocardiography. Animals are further randomized to additional groups based on cardiac function (EF %) and structure (LVD) to the following groups: Placebo, Example 10, captopril and Example 10+captopril. Animals in the Example 10 groups receive a single injection on week 4 after the 2nd randomization. Cardiac function (EF %) and structure (LVD) are evaluated on week 5 and 6.

[3] = Plasma pharmacokinetics in rats (toxicology studies); conditions: rat, in vivo, sc, 0.3 mg/kg
Description: Example 11 is administered in a single 3 mg/kg dose to male and female monkeys by SC bolus injection.

[4] = Week 4 (2nd randomization; before the single injection of Example 10)
[5] = Week 5 (single injection of Example 10 on week 4; captopril 2 g/L in drinking water)
[6] = Week 6 (single injection of Example 10 on week 4; captopril 2 g/L in drinking water)

B1: Example 10: NRG4 D1G/V22Q/E44K, (GGGGS)3 linker, SEQ ID NO: 19, fused to IgG Fc dimer SEQ ID NO: 6 and 7 (protein)
chain 1: GGGGSGGGGSGGGGSGHEEPCGPSHKSFCLNGGLCYQIPTIPSPFCRCVENYTGARCEKVFL
chain 2: ECPPCPAPPVAGPSVFLFPPKPKDTLMISRTPEVTCVVVDVSHEDPEVQFNWYVDGVEVHNAKTKPREEQFNSTFRVVSVLTVVHQDWLNGKEYKCKVSNKGLPAPIEKTISKTKGQPREPQVYTLPPSREEMTKNQVSLWCLVKGFYPSDIAVEWESNGQPENNYKTTPPVLDSDGSFFLYSKLTVDKSRWQQGNVFSCSVMHEALHNHYTQKSLSLSPG
chain 3: B1 chain 2 with W141S, L143A, Y182V
[1]
  inspections of tissue (cardiac toxicity): cardiac degeneration and necrosis
[2]; [4]
  Ejection Fraction: 33.3%
  Left Ventricle Diameter (end diastole): 9.33
[2]; [5]
  Ejection Fraction: 46.5* %
  Left Ventricle Diameter (end diastole): 9.35
[2]; [6]
  Ejection Fraction: 46.0* %
  Left Ventricle Diameter (end diastole): 9.01
[3]
  duration of detectable plasma concentrations: > 168 h
